In the supplement of paper PMC10567573:
± gives the standard deviation.

Assay: protein stability index of a GFP-peptide fusion (GPS, HEK-293T) (PSI 1-6); higher = more stable
[1] = treatment: DMSO, c terminus: a fixed tail appended
[2] = treatment: MLN4924 1 uM, 8 h, c terminus: a fixed tail appended
[3] = treatment: DMSO, c terminus: native
[4] = treatment: MLN4924 1 uM, 8 h, c terminus: native
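Note: 24-mer peptide tiles fused after GFP, lentivirally expressed, FACS-sorted into six equal bins by GFP/DsRed ratio, decoded by Illumina sequencing, PSI is the read-weighted mean bin number.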

Sequence | protein stability index [1] | protein stability index [2] | protein stability index [3] | protein stability index [4]
LALPPGAEHWTKEHCGAVCFVKDN [WAS] | 3.35 ± 0.23 | 3.45 ± 0.59 |  | 
LARVPKLDLKRQYDRVAQLDQLLH [CHGB] | 2.15 ± 0.063 | 2.48 ± 0.26 |  | 
LASLGASEEAVQKLATCYFFTVEF [TPH1] | 2.98 ± 0.52 | 2.73 ± 0.66 |  | 
LASYLEKVRQLERDNAELENLIRE [KRT33B] | 3.31 ± 0.5 | 3.34 ± 0.36 |  | 
LATASYDTRVYIWDPHNGDILMEF [WSB1] | 2.85 ± 0.12 | 2.86 ± 0.26 |  | 
LCRKCANDIFQAANPYWTSRGSSV [TRIM63] | 2.32 ± 0.36 | 2.58 ± 0.49 |  | 
LDMEKRRCRQSLEDSESLRIKEVE [LRRC45] | 4.79 ± 0.2 | 4.67 ± 0.1 |  | 
LDRDALKQSLVVAVQDHGQPPLSA [PCDHGA10] | 4.49 ± 0.19 | 4.678 ± 0.044 |  | 
LDSCNSLTPKSTPVKTLPFSPSQF [MYBL2] | 3.34 ± 0.2 | 3.37 ± 0.42 |  | 
LDVERWLKPAMTQAQDEVEQERRL [FCHSD1] | 4.98 ± 0.16 | 5.11 ± 0.19 |  | 
LDVRARLECEINTYRSLLESEDCK [KRT33B] | 4.23 ± 0.16 | 4.38 ± 0.25 |  | 
LEDLESELDDPGQPVSLRRRKREV [ZNF24] | 5.38 ± 0.09 | 5.49 ± 0.16 |  | 
LEDLKDQIAQLEASLAAAKKQLAD [LMNB1] | 5.3 ± 0.12 | 5.21 ± 0.15 |  | 
LEFDLLIFSFGQLPLALVTWVPMF [SOAT2] | 3.17 ± 0.49 | 3.02 ± 0.33 |  | 
LFAGFLPRIIKAAPSCAIMISTYE [SLC25A39] | 2.8 ± 0.31 | 3.21 ± 0.75 |  | 
LFQTHENREHLVMMEKILGPIPSH [CLK3] | 2.85 ± 0.3 | 3.1 ± 0.15 |  | 
LGPESWQQIAMDPEEVKSLDSNGA [BCL2L13] | 5.16 ± 0.16 | 5.24 ± 0.21 |  | 
LGPSGLQNHGQHLILSREASWAKP [LCOR] | 3.08 ± 0.19 | 3.18 ± 0.2 |  | 
LGPSRDPDPLNICVFILLLVFIVV [RTP4] | 3.8 ± 0.48 | 2.77 ± 0.41 |  | 
LGRELMLQLSEFLCEEFRNRNQRI [CPN1] | 2.31 ± 0.2 | 2.26 ± 0.26 |  | 
LGVVYRSLSFEDELVYADDYIMDE [ESRRG] | 2.46 ± 0.04 | 2.67 ± 0.33 |  | 
LICAISHTHRAHTVVPLDDATQEY [TRIM39] | 2.59 ± 0.19 | 2.51 ± 0.38 |  | 
LIGDFSKGYLFHTVAGKHQDLKYI [CDC25A] | 2.02 ± 0.32 | 1.81 ± 0.43 |  | 

Sequence | protein stability index [1] | protein stability index [2] | protein stability index [3] | protein stability index [4]
LIKSGAHFDATNLHKQTASDLLDE [FEM1C] | 4.61 ± 0.36 | 4.53 ± 0.51 |  | 
LITQQIIPVLYCMVFIAGILLNGV [P2RY14] | 3.37 ± 0.2 | 3.42 ± 0.44 |  | 
LIWVVGPVLAVVFIICIVIAILLY [PTPRD] | 2.35 ± 0.21 | 2.15 ± 0.29 |  | 
LKGVKQACCEFLESQLDPSNCLGI [KLHL12] | 2.66 ± 0.66 | 2.51 ± 0.29 |  | 
LKKFLYNFDNPWNFQNIPKETELP [MIA2] | 3.061 ± 0.006 | 2.66 ± 0.41 |  | 
LKTGNSSPGIGAVYLANQAKNQSD [RTP4] | 3.82 ± 0.14 | 3.97 ± 0.19 |  | 
LLGEPLAGPELDEMLREVDLNGDG [CABP4] | 5.18 ± 0.21 | 5.36 ± 0.21 |  | 
LLLAYNSSARIPKCPWMEGGEMSP [INTS4] | 2.27 ± 0.32 | 2.17 ± 0.14 |  | 
LLLFLVFVIVLFFIYHFMQAEEGN [EMD] | 2.23 ± 0.15 | 2.42 ± 0.15 |  | 
LLLSHIHASSYISPEKEEQYIAQF [PRAME] | 2.42 ± 0.54 | 2.37 ± 0.4 |  | 
LLNLVDHTEVVRDLTFAPDGSLIL [WSB1] | 2.24 ± 0.13 | 2.16 ± 0.16 |  | 
LLNPNLKDTVICAMKITQEPQGLG [SPACA3] | 2.4 ± 0.4 | 2.51 ± 0.21 |  | 
LLPKSRENYLNRCMDQERLRREST [FCHO1] | 3.31 ± 0.17 | 3.21 ± 0.16 |  | 
LLRTFDAGEFTGWEKVGSGGFGQV [RIPK4] | 2.43 ± 0.56 | 2.53 ± 0.094 |  | 
LLTIGDANGEIQRHAEQQALRLEV [CARM1] | 3.53 ± 0.27 | 3.71 ± 0.11 |  | 
LLTTSGIQFKKHEEEGIETQYFAE [CNOT7] | 4.13 ± 0.13 | 4.19 ± 0.11 |  | 
LLYTSLPDFCHKFLPGYVGGIQEG [DHCR7] | 2.58 ± 0.58 | 2.71 ± 0.63 |  | 
LMADLVADISEAEQRTIQAQKESL [APBB1IP] | 3.5 ± 0.56 | 3.6 ± 0.45 |  | 
LMAGCIQEARERWNFDFVTETPLE [CDKN1A] | 2.84 ± 0.67 | 2.92 ± 0.33 |  | 
LMVGPNFRVGKKIGCGNFGELRLG [CSNK1G3] | 1.9 ± 0.23 | 2.58 ± 0.59 |  | 
LPAGPLPAPLLVLCPSRAELDRWL [PLEKHN1] | 2.81 ± 0.16 | 2.6 ± 0.22 |  | 
LPCFNGRVVSWLVSAEGSHPDPAP [DVL3] | 2.64 ± 0.24 | 2.53 ± 0.28 |  | 
LPDPREACGSSSYVASIVDGGESR [RBMY1A1] | 4.74 ± 0.24 | 4.64 ± 0.14 |  | 

Sequence | protein stability index [1] | protein stability index [2] | protein stability index [3] | protein stability index [4]
LPELFHKIGVGAMTWSPLACGIVS [KCNAB2] | 2.74 ± 0.42 | 2.84 ± 0.46 |  | 
LPELKANPFKERICRVFSTSPAKD [CIB1] | 3.46 ± 0.08 | 3.58 ± 0.2 |  | 
LPGACNIPANVSNCNWFCEGSFNG [KRT33B] | 2.33 ± 0.27 | 2.36 ± 0.22 |  | 
LPMLSVDMENKENGSVGVKNSMEN [SAMD13] | 5.09 ± 0.25 | 5.18 ± 0.27 |  | 
LPPTPLLLFPEEEATNGREGLLRF [AUP1] | 3.7 ± 0.33 | 3.73 ± 0.13 |  | 
LPVVNAVGEIVGIITRHNLTYEFL [CLCN6] | 3.07 ± 0.43 | 2.75 ± 0.66 |  | 
LQDIKTAGPQSQVLCGVVMDRSLV [ADD1] | 2.98 ± 0.22 | 2.91 ± 0.19 |  | 
LQEKQKNEKLISLQEQLQRFLKK [TAF7L] |  |  | 4.51 ± 0.29 | 4.6 ± 0.15
LQFEAEMARLQEEHGDQLLSIRCQ [MTUS2] | 3.99 ± 0.12 | 3.92 ± 0.51 |  | 
LQGKDAWLPLHYAAWQGHLPIVKL [RIPK4] | 2.21 ± 0.38 | 2.48 ± 0.42 |  | 
LREMLSKKHAAYAWPFYKPVDAEA [BRD3] | 2.54 ± 0.26 | 2.99 ± 0.16 |  | 
LRGKECCINRFQQVESRWGYSGTS [BTBD1] | 2.47 ± 0.18 | 2.72 ± 0.16 |  | 
LRKSDMLEKEQVAHIRAERDILVE [STK38L] | 3.8 ± 0.35 | 4.17 ± 0.13 |  | 
LRLCRLWPRNPPSRLLGAAAGQRS [DNAJC4] | 2.75 ± 0.54 | 2.7 ± 0.39 |  | 
LRLFGRVLERAACLRRCKRTLPAF [P3H4] | 2.37 ± 0.46 | 2.16 ± 0.53 |  | 
LRLPMLNTEVVQVAAGRTQKAGVT [NEK8] | 3.1 ± 0.33 | 3.47 ± 0.23 |  | 
LRSCYFSDPDCSMRPTLIDLLPTF [FBXO39] | 2.46 ± 0.35 | 2.2 ± 0.26 |  | 
LRTHIDAIILALPEDLQGILLKTG [DENND6A] | 2.17 ± 0.31 | 2.4 ± 0.084 |  | 
LRTRVKTTGIVETHFTFKDLHFKM [GNAI1] |  | 2.14 ± 0.62 |  | 
LRYYYDKNIIHKTSGKRYVYRFVC [ETS2] | 2.79 ± 0.48 | 2.53 ± 0.62 |  | 
LSEASGGRAENGERSDLEEDNERE [ZC3H15] | 5.53 ± 0.47 | 5.81 ± 0.062 |  | 
LSELLRYHTSQSGDEMTSLSEYVS [HSP90AB1] | 3.27 ± 0.23 | 3.6 ± 0.21 |  | 
LSMVSECLFSLINGDDMFVTFAAM [MCOLN1] | 2.35 ± 0.43 | 2.31 ± 0.3 |  | 

Sequence | protein stability index [1] | protein stability index [2] | protein stability index [3] | protein stability index [4]
LSNLVGKPSENHPLHNSGLLSLDP [MED27] | 3.87 ± 0.28 | 4.13 ± 0.26 |  | 
LSPISHGNTIALFFRSLLPNYTME [TCF25] | 3.25 ± 0.47 | 2.33 ± 0.7 |  | 
LSSGMAVAGMPTAYDLSSVIASGS [CARM1] | 3.02 ± 0.22 | 2.9 ± 0.41 |  | 
LSSSSARFLSRSIPSLQSEYVHY [CDC14A] |  |  | 3.19 ± 0.27 | 3.06 ± 0.26
LSTHNWTYWQCGQYLGVGPGAHGR [RSAD1] | 2.31 ± 0.21 | 1.99 ± 0.27 |  | 
LSVAPQIGMPFNQLGTLAGSKYYN [SMG5] | 2.67 ± 0.15 | 2.71 ± 0.011 |  | 
LTDFYPVRRSSRKSKAELQSEERK [KMT5A] | 3.04 ± 0.39 | 3.49 ± 0.9 |  | 
LTKDEAAAHLKLTSIEEGYERSFI [IQUB] | 3.58 ± 0.39 | 3.43 ± 0.16 |  | 
LTLDLPTAPLYKDEKEQLIIPQVP [USP39] | 3.91 ± 0.33 | 3.92 ± 0.25 |  | 
LVAGIGFYQHLLLYIQSHYQLELQ [SMG5] | 2.99 ± 0.5 | 3.11 ± 0.43 |  | 
LVFLITAILVKVQLDALPFFVITM [SLC29A1] | 3.06 ± 0.24 | 2.88 ± 0.39 |  | 
LVMPIEDQLTQIMRTGQNTWESKN [PCMTD1] | 3.13 ± 0.13 | 3.2 ± 0.38 |  | 
LYPFQIHSIALSTFASLIGPFGGF [CDS1] | 3.36 ± 0.62 | 3.09 ± 0.36 |  | 
LYVVIPTRRSTAEAFQIVLSHLLG [SPNS1] | 2.72 ± 0.4 | 2.71 ± 0.33 |  | 
LYWTKWYNNQSLGHGSHSFIYYEN [PKD2L1] | 2.53 ± 0.68 | 2.41 ± 0.47 |  | 
MADVINVSVNLEAFSQAISAIQAL [MED27] | 2.38 ± 0.72 | 2.23 ± 0.17 |  | 
MADWARAQSPGAVEEILDRENKRM [BET1L] | 4.71 ± 0.35 | 4.75 ± 0.21 |  | 
MASPCSAMAYHHDSRRIFVGQDNG [WDFY1] | 2.64 ± 0.18 | 2.67 ± 0.11 |  | 
MASQSQGIQQLLQAEKRAAEKVSE [ATP6V1G1] | 4.93 ± 0.36 | 5.385 ± 0.052 |  | 
MDETSPLVSPERAQPPDYTFPSGS [PI4K2A] | 4.91 ± 0.15 | 4.78 ± 0.39 |  | 
